Values of other authors as cited in publication PMC3760146.

Molecular target: Histone H4 K8ac peptide 1-12 (Homo sapiens) (UniProt P62805)
Experiment: NMR titration

P/CAF bromodomain (from UniProt Q92831)
Kd: 346 µM
